Measured values from patent publication US8444970B2, “Compositions and methods for treating ocular diseases and conditions” (Lpath, Inc., priority 2006, dated 2013).

Assays:
[1] = test system: CNV lesions after laser rupture of Bruch's membrane; test: CNV animal model of AMD, murine vs humanized mAbs (Example 17); format: in vivo, mouse; details: 0.5 ug intravitreal Day 0 and Day 6, 14 days post laser
Procedure: The humanized antibody variants and the murine antibody were compared for their ability to inhibit neo-vascularization in the CNV animal model of AMD as shown in FIG. 13. […] Mice were sacrificed 14 days post laser surgery. Control mice were treated with aqueous buffer (PBS) or an isotype-matched non-specific antibody. Three of the humanized variants inhibited angiogenesis essentially equivalently to the murine antibody as assessed by measurement of CNV area. CNV lesion volumes are represented as means±SEM. […]
The morphometric and volumetric CNV lesions were measured as follows. […]
Captured digital images were evaluated morphometrically using ImageJ software (Research Services Branch, National Institutes of Health, Bethesda, Md.). Images were split into separate RGB channels for analysis of the red and green channels as follows: 1) a calibration for the specific objective and microscope was applied to set the pixel-to-length ratio; 2) a threshold was applied using the Otsu algorithm; 3) images will be made binary; 4) a region-of-interest (ROI) was outlined to include the entire lesion area; 5) a particle analysis was performed to quantify the pixel area above the threshold level within the ROI. […]

[2] = Competitive ELISA for specificity / cross-reactivity to bioactive lipids; format: binding; details: for recognition of ceramide-1-phosphate (C1P): competitor lipid C1P; for cross-reactivity to lysophosphatidic acid (LPA): competitor lipid LPA; for cross-reactivity with sphingosylphosphorylcholine (SPC): competitor lipid SPC
Procedure: Screening of serum and cell supernatant for S1P-specific antibodies was by direct ELISA using a thiolated S1P analog as the antigen. A standard ELISA was performed, as described below, except that 50 ul of sample (serum or cell supernatant) was diluted with an equal volume of PBS/0.1% Tween-20 (PBST) during the primary incubation. ELISAs were performed in 96-well high binding ELISA plates (Costar) coated with 0.1 μg of chemically-synthesized thiolated-S1P conjugated to BSA in binding buffer (33.6 mM Na2CO3, 100 mM NaHCO3; pH 9.5). The thiolated-S1P-BSA was incubated at 37° C. for 1 hr. at 4° C. overnight in the ELISA plate wells. The plates were then washed four times with PBS (137 mM NaCl, 2.68 mM KCl, 10.14 mM Na2HPO4, 1.76 mM KH2PO4; pH 7.4) and blocked with PBST for 1 hr. at room temperature. For the primary incubation step, 75 uL of the sample (containing the S1P to be measured), was incubated with 25 uL of 0.1 ug/mL anti-S1P mAb diluted in PBST and added to a well of the ELISA plate. Each sample was performed in triplicate wells. Following a 1 hr. incubation at room temperature, the ELISA plates were washed four times with PBS and incubated with 100 ul per well of 0.1 ug/mL HRP goat anti-mouse secondary (Jackson Immunoresearch) for 1 hr. at room temperature. Plates were then washed four times with PBS and exposed to tetramethylbenzidine (Sigma) for 1-10 minutes. The detection reaction was stopped by the addition of an equal volume of 1M H2SO4. Optical density of the samples was determined by measurement at 450 nm using an EL-X-800 ELISA plate reader (Bio-Tech).
For cross reactivity, a competitive ELISA was performed as described above, except for the following alterations. The primary incubation consisted of the competitor (S1P, SPH, LPA, etc.) and a biotin-conjugated anti-S1P mAb. Biotinylation of the purified monoclonal antibody was performed using the EZ-Link Sulfo-NHS-Biotinylation kit (Pierce). Biotin incorporation was determined as per kit protocol and ranged from 7 to 11 biotin molecules per antibody. The competitor was prepared as follows: lipid stocks were sonicated and dried under argon before reconstitution in DPBS/BSA [1 mg/ml fatty acid free BSA (Calbiochem) in DPBS (Invitrogen 14040-133)]. Purified anti-S1P mAb was diluted as necessary in PBS/0.5% Triton X-100. Competitor and antibody solutions were mixed together so to generate 3 parts competitor to 1 part antibody. A HRP-conjugated streptavidin secondary antibody (Jackson Immunoresearch) was used to generate signal.
i. Specificity. The humanized variants were tested for specificity in a competitive ELISA assay (FIG. 1) against S1P and several other biolipids. This assay has the added benefit to allow for epitope mapping.

B1: LT1002: murine anti-S1P monoclonal antibody, IgG1 kappa, hybridoma clone 306D326.26 (antibody, listed as Mus sp., V domains shown)
VH: QAHLQQSDAELVKPGASVKISCKVSGFIFIDHTIHWMKQRPEQGLEWIGCISPRHDITKYNEMFRGKATLTADKSSTTAYIQVNSLTFEDSAVYFCARGGFYGSTIWFDFWGQGTTLTVS
VL: ETTVTQSPASLSMAIGEKVTIRCITTTDIDDDMNWFQQKPGEPPNLLISEGNILRPGVPSRFSSSGYGTDFLFTIENMLSEDVADYYCLQSDNLPFTFGSGTKLEIK
For B1, the “Percent inhibition of lesion size” value [1] was “approximately 80%”, the “Specificity (ELISA)” value ([2]; In vitro activity, Table 7) was “High” and the “recognition of ceramide-1-phosphate (C1P)” value ([2]; listed as SPHINGOMAB) was “did not recognize”. For the same molecule, the “recognition of ceramide-1-phosphate (C1P)” value ([2]; listed as anti-S1P mAb) was “no antibody binding was observed”, the “cross-reactivity with dihydrosphingosine-1-phosphate (DH-S1P)” value ([2]; competitor lipid DH-S1P) was “did cross react” and the “recognition of dihydrosphingosine (DH-SPH)” value ([2]; competitor lipid DH-SPH) was “did not recognize”. For the same molecule, the “cross-reactivity to lysophosphatidic acid (LPA)” value ([2]; listed as SPHINGOMAB) was “no cross-reactivity”, the “cross-reactivity to lysophosphatidic acid (LPA)” value ([2]; listed as anti-S1P mAb) was “no binding” and the “recognition of phosphatidyl ethanolamine (PE)” value ([2]; competitor lipid PE) was “did not recognize”. The “recognition of phosphatidyl serine (PS)” value ([2]; competitor lipid PS) was “did not recognize”, the “recognition of sphingomyelin (SM)” value ([2]; competitor lipid SM) was “did not recognize” and the “cross-reactivity with sphingosylphosphorylcholine (SPC)” value ([2]; listed as SPHINGOMAB) was “to a lesser extent”. For the same molecule, the “cross-reactivity with sphingosylphosphorylcholine (SPC)” value ([2]; listed as anti-S1P mAb) was “somewhat reduced” and the “cross-reactivity to sphingosine (SPH)” value ([2]; competitor lipid SPH) was “no cross-reactivity”.
